Test results published in patent US20120070451.

System: Cavβ2 (Ca2+ beta2 channel accessory subunit), endogenous, mouse heart

recombinant active Akt
in vitro kinase assay: Cavβ2-immunoprecipitates from cardiac homogenates incubated with recombinant active Akt and [γ-32]ATP: A band corresponding to phosphorylated Cavβ2 was detected only in the presence of the kinase
